Article PMC7837213, “Systematic Activity Maturation of a Single-Domain Antibody with Non-canonical Amino Acids through Chemical Mutagenesis” (Cell Chemical Biology, 2021)
Numbering of substitutions follows the chain as printed. Numbers in names are those of the source. Values belong to the binder of their own block, whether it stands above or below them.

Biological target: T1, Beta - Amyloid (1 - 42) - Lys(Biotin) - NH2, Human (human, UniProt P05067 672-713, Lys(Biotin) added at the C-terminus; C-terminal amide (NH2))
T1 construct: amyloid-beta peptide (1-42), human, cut product of the amyloid precursor protein; numbers count on: the Aβ peptide; added C-terminal lysine that carries the biotin, amidated; Held on streptavidin biosensors by the C-terminal biotin; also called monomeric C-terminally biotinylated Aβ42; C-terminally immobilized monomeric Aβ42; source: bought: Anaspec
T1 sequence (P05067 other isoform, or with tags, fused parts or gaps): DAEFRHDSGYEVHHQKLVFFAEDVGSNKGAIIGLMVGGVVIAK
Experiment: BLI; C-terminally biotinylated monomeric Aβ42 (5 μg/ml) on streptavidin biosensors; antibodies at 20 μM in PBS + 0.1% BSA + 0.02% TWEEN 20, 30°C; association 900 s, dissociation 1200 s; signal of biocytin-coated sensors subtracted
Settings: both partners purified

- binding result: binds
B1: DesAb-Aβ(3–9) (antibody, V domains shown)
VH: EVQLVESGGGLVQPGGSLRLSCAASGFNIKDTYIGWVRRAPGKGKEWVASIYPTNGYTRYADSVKGRFTISADTSKNTAYLQMNSLRAEDTAVYYCAAGSHETLTLREEEAAAWGQGTLVTVSS
notes: single-domain antibody on a human VH scaffold with the in-silico-designed CDR3 loop HETLTLR and a thermally stabilizing mutation; No cleavage of the tag is told; also called the starting construct; starting single-domain antibody; source: E. coli BL21 (DE3)-Gold, pRSET-B vector, purified (Ni-NTA, SEC); not shown: His6, N-terminal, kept

- binding result: binds
B2: DesAb-Aβ(3–9) (T138captamine) (antibody, V domains shown)
VH: B1 VH with T103C
modifications: position 138: non-canonical side chain, captamine (2-(dimethylamino)ethanethiol) added to dehydroalanine (Dha) by thiol-Michael addition; epimeric mixture of D and L side chains
notes: T138 is replaced through T138C and Dha by the captamine adduct; The new residue at 138 is written as C because the thiol adduct of Dha is an S-alkylated cysteine (S-(2-dimethylaminoethyl)cysteine); also called the captamine mutant; not shown: His6, N-terminal, kept
